Source: paper PMC7821874 (Science Advances, 2020)

B1: CAV1β with a 6X His-tag at the C terminus (natural protein, human, UniProt Q03135 32-178, looked up)
chain: MADELSEKQVYDAHTKEIDLVNRDPKHLNDDVVKIDFEDVIAEPEGTHSFDGIWKASFTTFTVTKYWFYRLLSALFGIPMALIWGIYFAILSFLHIWAVVPCIKSFLIEIQCISRVYSIYVHTVCDPLFEAVGKIFSNVRINLQKEI
B2: CAV1β-Venus (natural protein, human, UniProt Q03135 32-178, looked up)
chain: B1 chain
B3: wild-type (WT) human CAV1α with a C-terminal 6X-Histidine tag, Q03135 1-178 (natural protein)
chain: MSGGKYVDSEGHLYTVPIREQGNIYKPNNKAMADELSEKQVYDAHTKEIDLVNRDPKHLNDDVVKIDFEDVIAEPEGTHSFDGIWKASFTTFTVTKYWFYRLLSALFGIPMALIWGIYFAILSFLHIWAVVPCIKSFLIEIQCISRVYSIYVHTVCDPLFEAVGKIFSNVRINLQKEI

How the values were obtained:
[1] = molecular target: the molecule itself; experiment: negative stain electron microscopy
[2] = molecular target: T1, wild-type (WT) human CAV1α with a C-terminal 6X-Histidine tag (human), Q03135; experiment: negative stain electron microscopy; settings: remark: other sources report otherwise
T1 chain: B3 chain

Binder	binding result [1]	stoichiometry N [2]
B1	binds	–
B2	binds	–
B3	–	10
